Reference: paper PMC3266934, “The Murine Coronavirus Hemagglutinin-esterase Receptor-binding Site: A Major Shift in Ligand Specificity through Modest Changes in Architecture” (PLoS Pathogens, 2012)

B1: MHV-S HE ectodomain (mouse hepatitis virus strain S hemagglutinin-esterase, residues 25-403), released from HE-Fc by thrombin cleavage (domain or fragment)
chain: FNEPLNIVSHLNDDWFLFGDSRSDCTYVENNGHPKLDWLDLDPKLCNSGRISAKSGNSLFRSFHFIDFYNYSGEGDQVIFYEGVNFSPSHGFKCLAYGDNKRWMGNKARFYARVYEKMAQYRSLSFVNVSYAYGGNAKPTSICKDKTLTLNNPTFISKESNYVDYYYESEANFTLQGCDEFIVPLCVFNGHSKGSSSDPANKYYTDSQSYYNMDTGVLYGFNSTLDVGNTVQNPGLDLTCRYLALTPGNYKAVSLEYLLSLPSKAICLRKPKSFMPVQVVDSRWNSTRQSDNMTAVACQLPYCFFRNTSADYSGGTHDVHHGDFHFRQLLSGLLYNVSCIAQQGAFVYNNVSSSWPAYGYGHCPTAANIGYMAPVCIYD
notes: also called free MHV-S HE; not shown: Fc (human IgG1), C-terminal, cleaved
B2: MHV-S HE^0 ectodomain (esterase-inactive, Ser45 replaced by Ala, residues 25-403), released from HE^0-Fc by thrombin cleavage (domain or fragment)
chain: FNEPLNIVSHLNDDWFLFGDARSDCTYVENNGHPKLDWLDLDPKLCNSGRISAKSGNSLFRSFHFIDFYNYSGEGDQVIFYEGVNFSPSHGFKCLAYGDNKRWMGNKARFYARVYEKMAQYRSLSFVNVSYAYGGNAKPTSICKDKTLTLNNPTFISKESNYVDYYYESEANFTLQGCDEFIVPLCVFNGHSKGSSSDPANKYYTDSQSYYNMDTGVLYGFNSTLDVGNTVQNPGLDLTCRYLALTPGNYKAVSLEYLLSLPSKAICLRKPKSFMPVQVVDSRWNSTRQSDNMTAVACQLPYCFFRNTSADYSGGTHDVHHGDFHFRQLLSGLLYNVSCIAQQGAFVYNNVSSSWPAYGYGHCPTAANIGYMAPVCIYD
notes: not shown: Fc (human IgG1), C-terminal, cleaved

Molecular target: the molecule itself
Assay: crystal structure; crystals of the thrombin-released ectodomain, space group P2(1)2(1)2(1), two HE molecules in the asymmetric unit; free HE (2.1 Å) and HE^0 soaked with a sialic acid receptor analogue (2.5 Å); 0.2 M KH2PO4, 0.2 M sodium malonate, 15% PEG3350, 18°C

Protein | binding result
B1 | binds
B2 | binds
